Reference: patent publication US20240076353A1

Target: IL-15R β protein
Experiment: BLI (Octet-RED); IL-15R β immobilized on Ni-NTA biosensors, serial dilutions of the complex as analyte, global 1:1 fit

Chain of IL-15R β protein (P14784 27-240): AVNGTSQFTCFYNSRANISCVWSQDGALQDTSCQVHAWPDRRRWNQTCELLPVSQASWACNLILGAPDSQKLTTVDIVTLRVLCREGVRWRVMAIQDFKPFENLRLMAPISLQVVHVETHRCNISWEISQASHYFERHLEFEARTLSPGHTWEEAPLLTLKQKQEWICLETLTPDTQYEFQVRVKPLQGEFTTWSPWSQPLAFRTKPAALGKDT

ALT803 (Fc fusion)
Kd: 3.9 nM | koff: 0.000235 s⁻¹ | kon: 60400 M⁻¹ s⁻¹
